Results on 3 proteins are retold here after doi:10.1101/2024.03.04.583282 (bioRxiv, 2024).

B1: N-terminally truncated NATA2 (30-236, NATA2Δ) (enzyme, Arabidopsis thaliana, UniProt Q9ZV06 30-236, looked up)
chain: MFSRIRLATPSDVPFIHKLIHQMAVFERLTHLFSATESGLASTLFTSRPFQSFTVFLLEVSRSPFPATITSSPSPDFTPFFKTHNLDLPIDDPESYNFSPDMLNDVVVAGFVLFFPNYSSFLSKPGFYIEDIFVREPYRRKGFGSMLLTAVAKQAVKMGYGRVEWVVLDWNVNAIKFYEQMGAQILQEWRVCRLTGDALEAFDQVNI
B2: N-terminally truncated NATA1 (19-228, NATA1Δ) (enzyme, Arabidopsis thaliana, UniProt Q9ZV05 19-228, looked up)
chain: TGHRMFSRIRLATPTDVPFIHKLIHQMAVFERLTHLFVATESGLASTLFNSRPFQAVTVFLLEISPSPFPTTHDASSPDFTPFLETHKVDLPIEDPDREKFLPDKLNDVVVAGFVLFFPNYPSFLAKQGFYIEDIFMREPYRRKGFGKLLLTAVAKQAVKLGVGRVEWIVIDWNVNAINFYEQMGAQVFKEWRLCRLTGDALQAIDKLNI
B3: full-length NATA2 (enzyme, Arabidopsis thaliana, UniProt Q9ZV06 1-236, looked up)
chain: MAAAAPPPPPTAAPEPNMVAPLISPIGHPMFSRIRLATPSDVPFIHKLIHQMAVFERLTHLFSATESGLASTLFTSRPFQSFTVFLLEVSRSPFPATITSSPSPDFTPFFKTHNLDLPIDDPESYNFSPDMLNDVVVAGFVLFFPNYSSFLSKPGFYIEDIFVREPYRRKGFGSMLLTAVAKQAVKMGYGRVEWVVLDWNVNAIKFYEQMGAQILQEWRVCRLTGDALEAFDQVNI

The series concerns the molecule itself. Kind of series: crystal structure.
For the protein B1, the stoichiometry N – broadly, the number of molecules, sites or subunits per partner or assembly – is 2. Consider B2, for which the “stoichiometry N” value was determined as 2.

As to B3, the “stoichiometry N” value turned out to be 2.
